Test results taken from publication PMC10403523.

What was measured:
[1] = test system: yeast SWI/SNF complex, Snf2 delta-AT (Saccharomyces cerevisiae); experiment: EMSA; settings: apparent KD, Kd EMSA: 6.7 nM DNA or nucleosome, 1.3-23 nM SWI/SNF, 4% native PAGE (79:1), Methods: prebinding 30 C, 15 min, gel in 0.5x TBE, binding buffer, salt and pH not …
[2] = test system: yeast SWI/SNF complex, Snf2 delta-AT (Saccharomyces cerevisiae); experiment: competition; settings: EMSA competition against 601 DNA; Kd EMSA: 6.7 nM DNA or nucleosome, 1.3-23 nM SWI/SNF, 4% native PAGE (79:1); Methods: prebinding 30 C, 15 min, gel in 0.5x …; binding buffer, salt and pH not

Question: For 29N59 nucleosome, which Kd ([1]; 6.7 nM nucleosome, recombinant Xenopus laevis histone octamer) is on record?
Answer: Its Kd is 20.5 nM.

Question: For 235 bp 601 DNA, which Kd ([1]; 6.7 nM DNA) is on record?
Answer: The Kd was 12.8 nM.

Question: pUC19 plasmid was tested. Which Ki [2] did it give?
Answer: The Ki was 25 nM.
